Source: paper PMC6380343, “Interactions and activities of factors involved in the late stages of human 18S rRNA maturation” (RNA Biology, 2019)
One block for each binder: values may come before it.

Key:
GST-tagged RIO2 = biological target: T1, GST-tagged RIO2 (human, UniProt Q9BVS4-1 1-552); assay: pull-down; 50 ng GST-tagged bait with equal amounts of His-tagged or untagged prey; 50 mM Tris-HCl pH 8.0, 10% glycerol, 300 mM NaCl, 5 mM MgCl2, 0.1% Tween20; 1 h at 4°C; glutathione sepharose; western blotting; details: both partners purified
T1 construct: also called GST-RIO2; source: E. coli BL21 Codon Plus, purified (glutathione sepharose, desalted); not shown: GST, N-terminal, kept

His-tagged NOB1 = biological target: T2, His-tagged NOB1 (human, UniProt Q9ULX3 1-412); assay: as above; details: both partners purified
T2 construct: also called His-NOB1; source: E. coli BL21 Codon Plus, purified (Ni-NTA, desalted); not shown: His6, N-terminal, kept
T2 sequence (looked up): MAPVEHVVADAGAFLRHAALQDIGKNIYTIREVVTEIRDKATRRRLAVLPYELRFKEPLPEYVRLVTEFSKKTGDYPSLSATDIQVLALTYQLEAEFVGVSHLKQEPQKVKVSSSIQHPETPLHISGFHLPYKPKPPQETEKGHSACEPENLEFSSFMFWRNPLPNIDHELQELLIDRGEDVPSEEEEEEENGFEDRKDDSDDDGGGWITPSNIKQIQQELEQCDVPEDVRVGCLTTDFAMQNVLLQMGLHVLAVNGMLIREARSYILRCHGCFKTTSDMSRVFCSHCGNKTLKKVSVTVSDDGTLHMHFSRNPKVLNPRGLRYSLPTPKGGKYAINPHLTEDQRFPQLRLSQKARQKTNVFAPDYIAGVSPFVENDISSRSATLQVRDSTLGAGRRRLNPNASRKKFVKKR

T1 sequence (Q9BVS4 whole entry): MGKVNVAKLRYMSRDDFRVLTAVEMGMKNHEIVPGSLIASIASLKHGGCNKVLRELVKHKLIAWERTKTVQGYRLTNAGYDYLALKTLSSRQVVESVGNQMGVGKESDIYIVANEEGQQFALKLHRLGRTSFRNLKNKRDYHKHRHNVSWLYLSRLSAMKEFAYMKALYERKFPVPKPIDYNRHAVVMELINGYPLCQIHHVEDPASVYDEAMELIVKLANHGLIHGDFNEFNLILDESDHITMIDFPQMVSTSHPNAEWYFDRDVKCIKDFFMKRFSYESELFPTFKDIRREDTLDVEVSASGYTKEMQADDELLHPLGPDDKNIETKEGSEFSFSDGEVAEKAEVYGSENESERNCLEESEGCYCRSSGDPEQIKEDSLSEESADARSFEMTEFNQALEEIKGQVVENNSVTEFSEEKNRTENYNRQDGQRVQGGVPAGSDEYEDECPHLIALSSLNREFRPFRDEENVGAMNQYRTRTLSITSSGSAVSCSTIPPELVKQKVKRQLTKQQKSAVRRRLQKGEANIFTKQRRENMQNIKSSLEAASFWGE

- binding result (GST-tagged RIO2): binds
B1: His-tagged DIM1 (natural protein, human, UniProt Q9UNQ2 1-313, looked up)
chain: MPKVKSGAIGRRRGRQEQRRELKSAGGLMFNTGIGQHILKNPLIINSIIDKAALRPTDVVLEVGPGTGNMTVKLLEKAKKVVACELDPRLVAELHKRVQGTPVASKLQVLVGDVLKTDLPFFDTCVANLPYQISSPFVFKLLLHRPFFRCAILMFQREFALRLVAKPGDKLYCRLSINTQLLARVDHLMKVGKNNFRPPPKVESSVVRIEPKNPPPPINFQEWDGLVRITFVRKNKTLSAAFKSSAVQQLLEKNYRIHCSVHNIIIPEDFSIADKIQQILTSTGFSDKRARSMDIDDFIRLLHGFNAEGIHFS
notes: also called His-DIM1; source: E. coli BL21 Codon Plus, purified (Ni-NTA, desalted); not shown: His6, N-terminal, kept

- binding result (His-tagged NOB1): binds
B2: GST-tagged PNO1 (natural protein)
chain: not shown
notes: also called GST-PNO1; source: E. coli BL21 Codon Plus, purified (glutathione sepharose, desalted); not shown: GST, N-terminal, kept
